What was measured:
Assay in all cases: holdup assay
Parameters in all cases: key: below the threshold = too weak to quantify, mostly under pKd 3.1 to 4
[1] = biological target: Inadl_1, Q8NI35
[2] = biological target: ARHGEF12, Q9NZN5-2
[3] = biological target: T1, DLG3_3, Q92796
T1 sequence (Q92796 374-475, limits assumed, looked up): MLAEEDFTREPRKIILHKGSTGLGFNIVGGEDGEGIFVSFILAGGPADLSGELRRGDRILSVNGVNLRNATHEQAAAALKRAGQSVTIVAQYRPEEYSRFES

[4] = biological target: T2, MPP7, Q5T2T1
T2 sequence (Q5T2T1 134-230, limits assumed, looked up): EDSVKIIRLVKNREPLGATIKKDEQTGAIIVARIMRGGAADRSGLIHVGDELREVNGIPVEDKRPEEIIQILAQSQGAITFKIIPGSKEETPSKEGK

[5] = biological target: T3, ARHGEF11, O15085
T3 sequence (O15085 42-136, limits assumed, looked up): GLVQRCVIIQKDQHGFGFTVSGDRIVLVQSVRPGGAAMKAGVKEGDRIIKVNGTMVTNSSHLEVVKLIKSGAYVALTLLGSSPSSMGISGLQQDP

[6] = biological target: T4, LRRC7, Q96NW7
T4 sequence (Q96NW7 1440-1537, limits assumed, looked up): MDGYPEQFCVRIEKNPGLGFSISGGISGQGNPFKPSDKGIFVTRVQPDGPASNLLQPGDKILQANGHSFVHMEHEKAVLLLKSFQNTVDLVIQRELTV

[7] = biological target: GRIP2_6, Q9C0E4
[8] = biological target: FRMPD2_3, Q68DX3
[9] = biological target: T5, MPDZ_5, O75970
T5 sequence (O75970 695-796, limits assumed, looked up): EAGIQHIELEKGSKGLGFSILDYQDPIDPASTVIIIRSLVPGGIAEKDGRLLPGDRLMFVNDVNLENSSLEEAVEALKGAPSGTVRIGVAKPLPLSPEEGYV

[10] = biological target: TJP1_3, Q07157
[11] = biological target: T6, RADIL, Q96JH8
T6 sequence (Q96JH8 971-1071, limits assumed, looked up): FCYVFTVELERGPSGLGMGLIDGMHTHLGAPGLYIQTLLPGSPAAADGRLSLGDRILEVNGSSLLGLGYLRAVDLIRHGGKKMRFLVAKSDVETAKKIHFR

[12] = biological target: Inadl_6, Q8NI35
[13] = biological target: T7, DLG3_2, Q92796
T7 sequence (Q92796 221-321, limits assumed, looked up): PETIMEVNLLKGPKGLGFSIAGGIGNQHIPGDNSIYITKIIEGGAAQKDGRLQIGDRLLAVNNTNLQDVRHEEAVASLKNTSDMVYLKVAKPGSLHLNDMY

[14] = biological target: HTRA1, Q92743
[15] = biological target: MAGI2_2, Q86UL8
[16] = biological target: SNX27, Q96L92
[17] = biological target: T8, DFNB31_1, Q9P202
T8 sequence (Q9P202 135-233, limits assumed, looked up): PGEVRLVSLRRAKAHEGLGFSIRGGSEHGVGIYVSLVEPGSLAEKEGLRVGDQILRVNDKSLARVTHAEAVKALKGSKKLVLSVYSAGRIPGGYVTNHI

[18] = biological target: GRIP2_5, Q9C0E4
[19] = biological target: T9, CARD11, Q9BXL7
T9 sequence (Q9BXL7 662-765, limits assumed, looked up): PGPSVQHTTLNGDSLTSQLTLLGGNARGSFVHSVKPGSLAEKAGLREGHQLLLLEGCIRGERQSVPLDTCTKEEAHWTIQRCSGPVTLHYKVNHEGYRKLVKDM

[20] = biological target: T10, RHPN1, Q8TCX5
T10 sequence (Q8TCX5 508-602, limits assumed, looked up): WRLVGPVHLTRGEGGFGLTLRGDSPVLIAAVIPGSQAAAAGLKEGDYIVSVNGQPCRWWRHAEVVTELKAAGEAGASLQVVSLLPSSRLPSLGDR

[21] = biological target: T11, GRIP1_3, Q9Y3R0
T11 sequence (Q9Y3R0 247-346, limits assumed, looked up): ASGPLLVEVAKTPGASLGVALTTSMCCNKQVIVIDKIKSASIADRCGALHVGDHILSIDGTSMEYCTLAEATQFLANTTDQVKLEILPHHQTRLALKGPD

[22] = biological target: NHERF4_2, Q86UT5
[23] = biological target: T12, SYNJ2BP, P57105
T12 sequence (P57105 8-110, limits assumed, looked up): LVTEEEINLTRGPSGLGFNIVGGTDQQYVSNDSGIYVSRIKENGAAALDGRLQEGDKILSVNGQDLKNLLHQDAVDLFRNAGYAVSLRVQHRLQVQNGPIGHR

[24] = biological target: T13, SIPA1L2, Q9P2F8
T13 sequence (Q9P2F8 945-1036, limits assumed, looked up): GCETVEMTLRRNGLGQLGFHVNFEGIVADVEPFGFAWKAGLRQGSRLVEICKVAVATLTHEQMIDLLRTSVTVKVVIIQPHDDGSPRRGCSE

[25] = plain residues with an end cap or a label only (N-terminal biotin on a linker: ado-ado)
[26] = plain residues with an end cap or a label only (N-terminal biotin on a linker: (peg)3)

Chain of NHERF4_2, Q86UT5 (Q86UT5 220-308): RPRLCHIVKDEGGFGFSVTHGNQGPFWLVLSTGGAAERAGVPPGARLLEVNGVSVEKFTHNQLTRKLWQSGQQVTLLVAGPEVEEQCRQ
Chain of ARHGEF12, Q9NZN5-2 (Q9NZN5 other isoform, or with tags, fused parts or gaps): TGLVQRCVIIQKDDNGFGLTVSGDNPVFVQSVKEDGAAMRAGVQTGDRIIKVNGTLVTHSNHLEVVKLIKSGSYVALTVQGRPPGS
Chain of FRMPD2_3, Q68DX3 (Q68DX3 1073-1166): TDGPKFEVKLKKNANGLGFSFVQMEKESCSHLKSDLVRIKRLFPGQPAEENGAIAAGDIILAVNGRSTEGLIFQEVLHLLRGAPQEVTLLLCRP
Chain of GRIP2_6, Q9C0E4 (Q9C0E4 648-740): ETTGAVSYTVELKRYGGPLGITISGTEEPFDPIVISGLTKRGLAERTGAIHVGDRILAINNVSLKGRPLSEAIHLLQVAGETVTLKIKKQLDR
Chain of MAGI2_2, Q86UL8 (Q86UL8 410-522): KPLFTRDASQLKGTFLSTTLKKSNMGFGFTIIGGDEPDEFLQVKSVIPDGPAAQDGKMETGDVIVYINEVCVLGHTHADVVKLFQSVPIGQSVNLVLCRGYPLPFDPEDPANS
Chain of Inadl_6, Q8NI35 (Q8NI35 1058-1167): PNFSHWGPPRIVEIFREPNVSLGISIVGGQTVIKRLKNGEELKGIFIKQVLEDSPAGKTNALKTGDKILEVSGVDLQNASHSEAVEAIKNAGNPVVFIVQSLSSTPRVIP
Chain of Inadl_1, Q8NI35 (Q8NI35 113-229): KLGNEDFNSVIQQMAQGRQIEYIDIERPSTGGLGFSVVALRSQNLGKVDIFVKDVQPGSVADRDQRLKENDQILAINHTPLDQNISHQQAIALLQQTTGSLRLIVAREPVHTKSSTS
Chain of TJP1_3, Q07157 (Q07157 416-512): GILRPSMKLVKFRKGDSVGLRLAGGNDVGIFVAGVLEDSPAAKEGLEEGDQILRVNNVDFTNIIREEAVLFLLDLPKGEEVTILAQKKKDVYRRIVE
Chain of HTRA1, Q92743 (Q92743 360-477): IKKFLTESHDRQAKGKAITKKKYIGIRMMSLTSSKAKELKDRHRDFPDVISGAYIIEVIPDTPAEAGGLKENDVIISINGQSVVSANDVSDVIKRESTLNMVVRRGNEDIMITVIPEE
Chain of GRIP2_5, Q9C0E4 (Q9C0E4 544-642): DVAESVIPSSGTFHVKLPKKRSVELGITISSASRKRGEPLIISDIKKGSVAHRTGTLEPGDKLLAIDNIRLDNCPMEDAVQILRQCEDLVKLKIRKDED

B1: FZD10, Q9ULW2 (peptide)
chain: EIPAQSPTCV
pKd [1, 25]: 3.58 | pKd [2, 25]: 3.91 | pKd [3, 25]: 3.81 | pKd [4, 25]: below the threshold | pKd [5, 25]: 4.2 | pKd [6, 25]: below the threshold | pKd [7, 25]: 3.74 | pKd [8, 25]: 3.77 | pKd [9, 25]: below the threshold | pKd [10, 25]: 3.65 | pKd [11, 25]: 4.47 | pKd [12, 25]: 3.7 | pKd [13, 25]: 3.88 | pKd [14, 25]: 4.57 | pKd [15, 25]: 4.17 | pKd [16, 25]: 4.08 | pKd [17, 25]: 3.67 | pKd [18, 25]: 3.7 | pKd [19, 25]: 3.56 | pKd [20, 25]: below the threshold | pKd [21, 25]: below the threshold | pKd [22, 25]: below the threshold | pKd [23, 25]: 4.36 | pKd [24, 25]: 3.69

B2: WNV-NS5, Q9Q6P4 (peptide)
chain: RYEDTTLVEDTVL
pKd [1, 26]: below the threshold | pKd [2, 26]: 3.92 | pKd [3, 26]: below the threshold | pKd [4, 26]: below the threshold | pKd [5, 26]: 3.99 | pKd [6, 26]: 3.49 | pKd [7, 26]: below the threshold | pKd [8, 26]: below the threshold | pKd [9, 26]: below the threshold | pKd [10, 26]: below the threshold | pKd [11, 26]: below the threshold | pKd [12, 26]: below the threshold | pKd [13, 26]: 3.76 | pKd [14, 26]: 4.58 | pKd [15, 26]: below the threshold | pKd [16, 26]: 5.38 | pKd [17, 26]: 3.83 | pKd [18, 26]: below the threshold | pKd [19, 26]: below the threshold | pKd [20, 26]: 4.41 | pKd [21, 26]: below the threshold | pKd [22, 26]: below the threshold | pKd [23, 26]: 3.66 | pKd [24, 26]: below the threshold

B3: KCNJ4, P48050 (peptide)
chain: NISYRRESAI
pKd [1, 25]: below the threshold | pKd [2, 25]: below the threshold | pKd [3, 25]: 3.98 | pKd [4, 25]: below the threshold | pKd [5, 25]: below the threshold | pKd [6, 25]: below the threshold | pKd [7, 25]: below the threshold | pKd [8, 25]: below the threshold | pKd [9, 25]: below the threshold | pKd [10, 25]: below the threshold | pKd [11, 25]: below the threshold | pKd [12, 25]: below the threshold | pKd [13, 25]: 4.35 | pKd [14, 25]: below the threshold | pKd [15, 25]: 4.74 | pKd [16, 25]: below the threshold | pKd [17, 25]: 4.29 | pKd [18, 25]: below the threshold | pKd [19, 25]: below the threshold | pKd [20, 25]: below the threshold | pKd [21, 25]: below the threshold | pKd [22, 25]: below the threshold | pKd [23, 25]: 4.84 | pKd [24, 25]: below the threshold
